Data from patent US20240287172A1 (SCIRHOM, published 2024).
Positions count from the first letter of the chain named.

T1: hiR2-FL-T586A-T7 (human, UniProt Q6PJF5 1-856)
T1 sequence: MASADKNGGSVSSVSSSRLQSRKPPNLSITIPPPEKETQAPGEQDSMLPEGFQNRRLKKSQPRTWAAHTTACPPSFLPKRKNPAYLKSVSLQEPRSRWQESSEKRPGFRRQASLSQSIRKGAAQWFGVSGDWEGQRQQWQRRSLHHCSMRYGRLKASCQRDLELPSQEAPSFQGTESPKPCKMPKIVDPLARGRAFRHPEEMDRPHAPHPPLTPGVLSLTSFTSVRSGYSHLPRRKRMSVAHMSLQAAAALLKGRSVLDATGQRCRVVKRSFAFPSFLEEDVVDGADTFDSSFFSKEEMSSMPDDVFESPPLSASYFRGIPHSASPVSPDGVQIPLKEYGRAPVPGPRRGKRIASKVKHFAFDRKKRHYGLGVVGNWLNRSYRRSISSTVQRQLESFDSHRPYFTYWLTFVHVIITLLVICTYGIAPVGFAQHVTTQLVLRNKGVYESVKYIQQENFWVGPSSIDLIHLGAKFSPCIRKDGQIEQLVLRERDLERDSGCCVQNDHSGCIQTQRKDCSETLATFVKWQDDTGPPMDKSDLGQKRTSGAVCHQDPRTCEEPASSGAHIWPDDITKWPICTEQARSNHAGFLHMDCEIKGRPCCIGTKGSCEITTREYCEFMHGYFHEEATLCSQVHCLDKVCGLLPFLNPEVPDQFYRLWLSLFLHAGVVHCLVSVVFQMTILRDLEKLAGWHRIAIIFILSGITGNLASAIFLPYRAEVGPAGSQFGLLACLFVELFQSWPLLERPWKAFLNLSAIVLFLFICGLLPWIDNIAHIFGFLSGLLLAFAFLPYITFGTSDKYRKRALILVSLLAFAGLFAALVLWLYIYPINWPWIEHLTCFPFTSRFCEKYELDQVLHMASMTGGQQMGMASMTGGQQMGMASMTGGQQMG

T2: hiR2-FL-K542A-T7 (human, UniProt Q6PJF5 1-856)
T2 sequence: T1 sequence with K542A, A586T

B1: antibody 5 (antibody, V domains shown)
VH: QVTLKESGPGILQPSQTLSLTCSFSGFSLSTFGMGVGWIRQPSGKGLEWLAHIWWDDEKYYNSALKSRLTISKATSKNQAFLKIANVDTADTATYYCARISNYGSNYWYFNVWGTGTTVTVSS
VL: QVVLTQSPALMSASPGEKVTMTCSAGSSVSCMYWYQQKPGSSPRVLIYDTSNLASGVPARFTGSGSGTSYSLTISRMEAEDAASYYCQQWNSYPLTFGAGTKLELK
notes: mouse IgG, kappa light chain; also called clone #5; purified antibody 5
B2: antibody 16 (antibody, V domains shown)
VH: QVTLKESGPGILQPSQTLSLTCSFSGFSLSTFALGVGWIRQPSGRGLEWLAHIWWDDDKYYNPALKSRLTISKDTSKNHVFLKIANVDTADTATYYCARITTYYYGMDYWGQGTSVTVSS
VL: DIVLSQSPATLSVTPGDSVSLFCRASQSIGNHLHWYQQESHASPRLLIKYASQSISGIPSRFSGSGSGTDFTLSINSVETEDFGMYFCQQSYNWPLTFGAGTKLELK
notes: mouse IgG, kappa light chain; also called clone #16; purified antibody 16
B3: antibody 3 (antibody, V domains shown)
VH: QVTLKESGPGILQPSQTLSLTCSFSGFSLTTFAMGIGWVRQPSGKGLEWLAHIWWDGEKYNNPVLKSRLTISKDTSKNQVFLRIANVDTPDTATYYCARISSIYYIIDNWGQGTSVTVSS
VL: B2 VL with S5T, D17H, F22S, G30S, H32N, Q38K, E39K, A42E, A51V
notes: mouse IgG, kappa light chain; also called clone #3; purified antibody 3

Columns and labels:
hiR2-FL-T586A-T7 = molecular target: T1, hiR2-FL-T586A-T7; assay: FACS on MEF-DKO cells expressing the variant, 3 µg/ml antibody
In short: (§1)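 Cells stained with purified antibody at 3 μg/ml for 1 h on ice, then with PE-conjugated goat anti-mouse IgG F(ab′)2 (1:100) for 1 h on ice in the dark. Binding read by flow cytometry; buffer-only staining as control.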

hiR2-FL-K542A-T7 = molecular target: T2, hiR2-FL-K542A-T7; assay: as above
In short: as §1

Row | Binder | loss of binding vs wild type (hiR2-FL-T586A-T7) | loss of binding vs wild type (hiR2-FL-K542A-T7)
1 | B1 | ≥ 30% | 
2 | B2 |  | ≥ 30%
3 | B3 | ≥ 30% | ≥ 60%
